The supplement of paper PMC10126150
± gives the standard deviation of the averaged measurements.

Tested on: ATP
Assay: switch fluorescence ratio, 500 uM ATP over buffer (Cy3 cluster intensity, sum of 5 cycles each) (fold (ratio)); higher = stronger signal-on switching upon ATP binding; sequences stand for … in TCGTCGGCAGCGTCAGATGTGTATAAGAGACAGTTTTTTTTTTTTTTTTTTTTTTTTT…TC
Details: aptamer strand: ATP DNA aptamer (quencher-CACCTGGGGGAGTATTGCGGAGGAAGG + anchor), 100 nM annealed; ATP concentration: 500 uM
Summary of the method: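 Cy3-labelled switching-strand clusters on a modified Illumina MiSeq flow-cell were annealed to 100 nM quencher-labelled ATP aptamer and imaged first in selection buffer, then after 15 min with 500 uM ATP at 22 °C. NaOH stripping and re-annealing separated each of five buffer/ATP cycles, and clusters outside 100-1000 RFU were excluded. The fluorescence ratio sums target-cycle Cy3 intensity over buffer-cycle Cy3 intensity per cluster and averages it per switch-domain sequence.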
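Further: ATP exposure 15 min at 22 °C before imaging.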

## CCGGACTATC
  switch fluorescence ratio: 2.4 ± 0.086

## AAGTTCAAGA
  switch fluorescence ratio: 0.99 ± 0.045

## AACGTTTGTT
  switch fluorescence ratio: 1.14 ± 0.23

## GGTGGTTATT
  switch fluorescence ratio: 0.996 ± 0.014

## AATACCTTTC
  switch fluorescence ratio: 2.3 ± 0.14

## GCCGCAGACA
  switch fluorescence ratio: 1.39 ± 0.1

## TAGTTGGTTT
  switch fluorescence ratio: 0.999 ± 0.037

## TGTAAAAAGT
  switch fluorescence ratio: 1 ± 0.026

## AAGGGGGGTA
  switch fluorescence ratio: 0.997 ± 0.037

## CAAGGACTGG
  switch fluorescence ratio: 0.997 ± 0.032

## AATCTATCCC
  switch fluorescence ratio: 1.027 ± 0.0042

## ATGGTAGAAA
  switch fluorescence ratio: 1.02 ± 0.012

## TGTCGGCTGG
  switch fluorescence ratio: 1.02 ± 0.052

## GGATGGAAGG
  switch fluorescence ratio: 0.963 ± 0.033

## TCTCATTGGG
  switch fluorescence ratio: 0.9875 ± 0.004

## TTTTGATGGG
  switch fluorescence ratio: 0.981 ± 0.055

## TAAATGTGTA
  switch fluorescence ratio: 1.01 ± 0.036

## TGTGGATTAT
  switch fluorescence ratio: 0.988 ± 0.011

## GCGGTATTCT
  switch fluorescence ratio: 1.001 ± 0.0042

## TTTTAACACT
  switch fluorescence ratio: 1.035 ± 0.0085

## GGTAGTGAGT
  switch fluorescence ratio: 0.9765 ± 0.0078

## TGACACATAC
  switch fluorescence ratio: 2.24 ± 0.033

## AAAGGTTCAA
  switch fluorescence ratio: 1.03 ± 0.011

## TAGCGCTGGT
  switch fluorescence ratio: 1.01 ± 0.02

## GAATCTTGCG
  switch fluorescence ratio: 0.95976 ± 0.00094

## TCGTGTATTG
  switch fluorescence ratio: 0.984 ± 0.026

## GAGTTTGTCC
  switch fluorescence ratio: 0.998 ± 0.012

## GTAGTTCTGC
  switch fluorescence ratio: 1 ± 0.018

## CAAGTTGATG
  switch fluorescence ratio: 0.982 ± 0.057

## TATAAAAAAT
  switch fluorescence ratio: 1 ± 0.028

## GCCTTACAGT
  switch fluorescence ratio: 0.985 ± 0.015

## ATGTTTCAGG
  switch fluorescence ratio: 0.997 ± 0.018

## GGTGGAAGGA
  switch fluorescence ratio: 1.02 ± 0.029

## TGTGAGTTTA
  switch fluorescence ratio: 0.978 ± 0.028

## GGTCTTTGAA
  switch fluorescence ratio: 0.979 ± 0.023

## TCCTACTGTA
  switch fluorescence ratio: 1.1974 ± 0.00047

## AGAGGCTCAG
  switch fluorescence ratio: 1.08 ± 0.069

## TAGGTTCTTT
  switch fluorescence ratio: 0.995 ± 0.022

## TGAAATGGGG
  switch fluorescence ratio: 0.98 ± 0.049

## GGTGGCGGGG
  switch fluorescence ratio: 0.987 ± 0.019

## ATGAAATAGT
  switch fluorescence ratio: 0.959 ± 0.046

## GGGAGAATTG
  switch fluorescence ratio: 1.01 ± 0.037

## GGGATTTGTT
  switch fluorescence ratio: 0.9888 ± 0.0057

## ATAAACTTGG
  switch fluorescence ratio: 1.01 ± 0.033

## CTCGCCGATA
  switch fluorescence ratio: 1.03 ± 0.031

## GGGGGTCCCT
  switch fluorescence ratio: 1.01 ± 0.015

## GGTGGTTTTG
  switch fluorescence ratio: 0.985 ± 0.037

## CGGGTGATTC
  switch fluorescence ratio: 1.04 ± 0.021

## CTATGATTGT
  switch fluorescence ratio: 0.977 ± 0.04

## TGGACCATTT
  switch fluorescence ratio: 1.01 ± 0.0021

## CAGGGGTCTA
  switch fluorescence ratio: 0.9957 ± 0.004

## GGGGAAGGGA
  switch fluorescence ratio: 1 ± 0.031

## GATACTCTTA
  switch fluorescence ratio: 1.021 ± 0.0081

## ATAGTGGGGC
  switch fluorescence ratio: 1.056 ± 0.0054

## ATGCGATCAA
  switch fluorescence ratio: 1.02 ± 0.014

## TTATGGACTG
  switch fluorescence ratio: 1.01 ± 0.079

## GGGTTAAGCT
  switch fluorescence ratio: 0.989 ± 0.029

## TTACTTCTTT
  switch fluorescence ratio: 0.976 ± 0.027

## CTGTGGCAGG
  switch fluorescence ratio: 1.021 ± 0.0041

## TTAGCCGTTG
  switch fluorescence ratio: 1.03 ± 0.015

## GACTGTTCCG
  switch fluorescence ratio: 0.958 ± 0.0055

## TAAGGGAGTG
  switch fluorescence ratio: 0.976 ± 0.031

## GCTGGCCGGT
  switch fluorescence ratio: 0.989 ± 0.021

## GAAAAGGGT
  switch fluorescence ratio: 1.08 ± 0.065

## TTTTGCATAT
  switch fluorescence ratio: 1.26 ± 0.42

## AATGTAATAA
  switch fluorescence ratio: 1.05 ± 0.084

## AGGCGGGCGG
  switch fluorescence ratio: 0.959 ± 0.019

## TTGATATGGG
  switch fluorescence ratio: 1.03 ± 0.11

## TAGTTATCGT
  switch fluorescence ratio: 1.01 ± 0.027

## CCGGTAGGGA
  switch fluorescence ratio: 1.01 ± 0.021

## CATGACTCCC
  switch fluorescence ratio: 2.01 ± 0.13

## CACTAACCAT
  switch fluorescence ratio: 1.09 ± 0.069

## CGGGGATGAA
  switch fluorescence ratio: 1.01 ± 0.063

## CATGGGGGAC
  switch fluorescence ratio: 0.995 ± 0.031

## GAATTCACGG
  switch fluorescence ratio: 1.06 ± 0.038

## GACACAGTGT
  switch fluorescence ratio: 0.98 ± 0.026

## GAGGGGTGGT
  switch fluorescence ratio: 0.987 ± 0.029

## GTGCTAAATA
  switch fluorescence ratio: 1.02 ± 0.0067

## ATTAAAGGGG
  switch fluorescence ratio: 1 ± 0.023

## TAGGACTCTC
  switch fluorescence ratio: 1.01 ± 0.02

## TTATCGGGAG
  switch fluorescence ratio: 0.9964 ± 0.0019

## CAGTAGTGTC
  switch fluorescence ratio: 0.985 ± 0.041

## ATGGTCCCTG
  switch fluorescence ratio: 0.997 ± 0.035

## TAGGTTGTAT
  switch fluorescence ratio: 0.978 ± 0.018

## GAAGGGGCCC
  switch fluorescence ratio: 1.02 ± 0.013

## AAGGTTTTGC
  switch fluorescence ratio: 0.99 ± 0.058

## TTTGAAGTCT
  switch fluorescence ratio: 0.978 ± 0.09

## GAACTGGGGG
  switch fluorescence ratio: 1 ± 0.019

## CGTGGGAGGT
  switch fluorescence ratio: 0.987 ± 0.036

## AGGGGATGAA
  switch fluorescence ratio: 1.04 ± 0.027

## TAGGTATATT
  switch fluorescence ratio: 0.97 ± 0.019

## CGTGAGATGC
  switch fluorescence ratio: 1.01 ± 0.038

## CTGGTGTATT
  switch fluorescence ratio: 1.017 ± 0.0046

## TAGGGCAACG
  switch fluorescence ratio: 1.04 ± 0.025

## TTTGATTGAG
  switch fluorescence ratio: 0.953 ± 0.012

## AGGGAAGTTG
  switch fluorescence ratio: 1.01 ± 0.07

## GGGGCCCGGG
  switch fluorescence ratio: 1.04 ± 0.036

## TCAGACTGCG
  switch fluorescence ratio: 0.999 ± 0.023

## GTTTTTAGAC
  switch fluorescence ratio: 1.03 ± 0.014

## GGATTCGAAG
  switch fluorescence ratio: 0.9953 ± 0.0071

## GTTGGGGGTC
  switch fluorescence ratio: 0.995 ± 0.011

## AACTATTGCG
  switch fluorescence ratio: 0.988 ± 0.019

## TTATACATTG
  switch fluorescence ratio: 1.02 ± 0.041

## GGGTGCACGG
  switch fluorescence ratio: 1.01 ± 0.021

## TGGGTGTTGC
  switch fluorescence ratio: 0.941 ± 0.083

## TGGCAGTCGG
  switch fluorescence ratio: 0.978 ± 0.019

## TTCCTTAGCG
  switch fluorescence ratio: 1.03 ± 0.015

## TTTTAGTTAG
  switch fluorescence ratio: 1.03 ± 0.058

## CCGCGCCGAT
  switch fluorescence ratio: 1.37 ± 0.16

## GATTTTGACG
  switch fluorescence ratio: 1.04 ± 0.067

## ATGCTTAGGG
  switch fluorescence ratio: 0.944 ± 0.02

## CAGTACTCTG
  switch fluorescence ratio: 0.986 ± 0.031

## TTACTGGCT
  switch fluorescence ratio: 1 ± 0.059

## ACCTACGCGG
  switch fluorescence ratio: 1.97 ± 0.22

## AGAAGCGTGG
  switch fluorescence ratio: 1.01 ± 0.025

## GAGATCTTTG
  switch fluorescence ratio: 0.967 ± 0.015

## ATTCGAGAAG
  switch fluorescence ratio: 0.997 ± 0.018

## GGTCGGCATA
  switch fluorescence ratio: 1.01 ± 0.042

## CGAGACAGGG
  switch fluorescence ratio: 1 ± 0.036

## AAGTAATGGA
  switch fluorescence ratio: 1.04 ± 0.06

## ACGATAGGGG
  switch fluorescence ratio: 1.03 ± 0.031

## ATAGTTTTCC
  switch fluorescence ratio: 1 ± 0.024

## CGTTAAGTTT
  switch fluorescence ratio: 0.9804 ± 0.0066

## AAGCTGTTAT
  switch fluorescence ratio: 1.16 ± 0.29

## CGGTTTGTTA
  switch fluorescence ratio: 0.985 ± 0.037

## AAGTTCGGGA
  switch fluorescence ratio: 1 ± 0.029

## GGGGGGGCCG
  switch fluorescence ratio: 0.993 ± 0.048

## CAATGCAGCA
  switch fluorescence ratio: 0.976 ± 0.021

## AATAAAGGGG
  switch fluorescence ratio: 1.19 ± 0.25

## CAATGTGGGT
  switch fluorescence ratio: 0.986 ± 0.0086

## GCAATTTAGA
  switch fluorescence ratio: 1.02 ± 0.016

## TTTGTTAGGT
  switch fluorescence ratio: 1 ± 0.031

## ATAAGATGCC
  switch fluorescence ratio: 0.963 ± 0.014

## TCGTATGTTT
  switch fluorescence ratio: 0.985 ± 0.021

## TATACGGGTG
  switch fluorescence ratio: 1.073 ± 0.0046

## TTCGACTTTT
  switch fluorescence ratio: 0.988 ± 0.051

## AGATGAGGTG
  switch fluorescence ratio: 1.01 ± 0.019

## GCGAGATCCG
  switch fluorescence ratio: 1.01 ± 0.011

## GGGGGAAAAT
  switch fluorescence ratio: 0.993 ± 0.042

## TTTGGGGCGA
  switch fluorescence ratio: 1.02 ± 0.031

## GAAGTTAGTT
  switch fluorescence ratio: 0.993 ± 0.038

## TGGATGGAGA
  switch fluorescence ratio: 1.006 ± 0.008

## ATAAGGATGG
  switch fluorescence ratio: 0.9788 ± 0.0034

## TGGGTTTGAT
  switch fluorescence ratio: 1.01 ± 0.041

## GTATAGGGAC
  switch fluorescence ratio: 1.03 ± 0.03

## TCCAGGGTCA
  switch fluorescence ratio: 1.01 ± 0.025

## GGGTTGTGTT
  switch fluorescence ratio: 0.978 ± 0.013

## ATAAGTGCAA
  switch fluorescence ratio: 1.06 ± 0.011

## ACAGTTGGCC
  switch fluorescence ratio: 1.02 ± 0.021

## GGGTAGGGTA
  switch fluorescence ratio: 0.9864 ± 0.0082

## TTCTCTAATG
  switch fluorescence ratio: 1.03 ± 0.016

## GTTAGACTCA
  switch fluorescence ratio: 1.01 ± 0.014

## ATGTGTAAAA
  switch fluorescence ratio: 0.99 ± 0.013

## CGTGGTTGCG
  switch fluorescence ratio: 0.962 ± 0.055

## GGATTACTGG
  switch fluorescence ratio: 1.03 ± 0.023

## TTTTCCCCCT
  switch fluorescence ratio: 1.081 ± 0.0069

## TTTGGGGTTG
  switch fluorescence ratio: 0.999 ± 0.037
